Reference: US20250027068

B1: PRT-352 (protein)
chain: MSQTEDSESLQRLRDIEDFQAEKKMQNVVYTKWLDGVDVKDHDFRKIVDGNSAYYATPLLNGRGFYDINKDFNRDSDKCAAAVAANMFHYWLDINRDNVDRFLRQNPEKHGIIELPDGQLKLSDFLNTYESDHGYRDKSKLFDFISENFNGPVWTDKLLDNYINGYAYNSKYGRTIEDPTKNTSKINFFKEVFNEKILTNNHSIRNQNEFSVLLIEALYTGKAIGLSYGPAGLRHGLGHIISVWGADLDADGNVVAIYVTDSDDKKLTIGDERVGLKRYKISTDDENRLRLTAYEETHNTGGQIRGLWTLDTGKYAWADYFDKTEQTGTDQAEQ
B2: PRT-353 (protein)
chain: MSQTEDSESLQRLRDIEDFQAEKEMQNVVYTKWLDGVDVKDHDFRKIVDGNSAYYATPLLNGRGWYDINKDFNRDSDKCAAAVAANMFHYWLDINRDNVDRFLRQNPEKHGIIELPDGQLKLSDFLNTYESDHGYRDKSKLFDFISENFNGPVWTDKLLDNYINGYAYNSKYGRTIEDPTKNTSKINFFKEVFNEKILTNNHSIRNQNEFSVLLIEALYTGKAIGLSYGPAGLRHGLGHIISVWGADLDADGNVVAIYVTDSDDKKLTIGDERVGLKRYKISTDDENRLRLTAYEETHNTGGQVRGLWTLDTGKYAWADYFDKTEQTGTDQAEQ
B3: PRT-359 (protein)
chain: MSQTEDSESLQRLRDIEDFQAEKKDQNVVYTKWLDGVDVKDHDFRKIVDGNIAYYATPLLNGRGLYDINKDFNRDSDKCAAAVAANMFHYWLDRNRDNVDRFLRQNPEKHGIIELPDGQLKLSDFLNTYESDDGYRDKSKLFDFISENFNGPVWTDKLLDNYINGYAYNYKYGRTIEDPTKNTSKINFFKEVFNEKILTNNHSIRNQNELSVLLSEALYTGKAIGLSYGPAGLRHSLGHIISVWGADLDADGNVVAIYVTDSDDKKLTIGDERVGLKRYKISTDDEGRLRLTAYEETHNTGGQVRGLWTLDTGKQAWADYFDKTEQTGTDQAEQ
B4: PRT-367 (protein)
chain: MSQTEDSESLQRLRDIEDFQAEKEKQNVVYTKWLDGVDVKDHDFRKIVDGNSAYYATPLLNGRGWYDINKDFNRDNDKCAAAVAANMFHYWLDRNRDNVDRFLRQNPEKHGIIELPDGQLKLSDFLNTYESDDGYRDKSKLFDFISNNFNGPVWTDKLLDNYINGYAYNYKYGRTIEDSTKNTSKINFFKEVFNEKILTNNHSIRNQNEFSVLLSEALYTGKAIGLSYGPAGLRHSLGHIISVWGADLDADGNVVAIYVTDSDDKKLTIGDERVGLKRYKISTDDEGRLRLTAYEETHNTGGQVRGLWTLDTGKQAWADYFDKTEQTGTDQAEQ
B5: PRT-368 (protein)
chain: MSQTEDSESLQRLRDIEDFQAEKKDQNVVYTKWLDGVDVKDHDFRKIVDGNIAYYATPLLNGRGWYDINKDFNRDNDKCAAAVAANMFHYWLDRNRDNVDRFLRQNPEKHGIIELPDGQLKLSDFLNTYESDDGYRDKSKLFDFISENFNGPVWTDKLLDNYINGYAYNYKYGRTIEDSTKNTSKINFFKEVFNEKILTNNHSIRNQNEFSVLLIEALYTGKAIGLSYGPAGLRHSLGHIISVWGADLDADGNVVAIYVTDSDDKKLTIGDERVGLKRYKISTDDEGRLRLTAYEETHNTGGQVRGLWTLDTGKQAWADYFDKTEQTGTDQAEQ
B6: PRT-360 (protein)
chain: MSQTEDSESLQRLRDIEDFQAEKKDQNVVYTKWLDGVDVKDHDFRKIVDGNSAYYATPLLNGRGWYDINKDFNRDSDKCAAAVAANMFHYWLDRNRDNVDRFLRQNPEKHGIIELPDGQLKLSDFLNTYESDDGYRDKSKLFDFISENFNGPVWTDKLLDNYINGYAYNYKYGRTIEDPTKNTSKINFFKEVFNEKILTNNHSIRNQNEFSVLLIEALYTGKAIGLSYGPAGLRHSLGHIISVWGADLDADGNVVAIYVTDSDDKKLTIGDERVGLKRYKISTDDEGRLRLTAYEETHNTGGQVRGLWTLDTGKQAWADYFDKTEQTGTDQAEQ
B7: PRT-336 (protein)
chain: MTITSVWTKGVTPPTPEDFRENNEDVLHAPYVANQGWYDITKTFDGKDNLLCGAATAGNMLHWWFDQNKEEIERYLKKHPEKQKIIFNNQELFDVKAAIDTKDSQTNSKLFDYFRDKAFPGLSARQLGVFPDLVLDMFINGYYLNLGKTQSTDVNRPYQDKDKRGGIFDAVFTRGVQTTLLTARHDLKNKGLNEISDLIKQELTEGKALALSHTYANVRINHVINLWGADFDAEGELIAIYVTDSDANPSIGMKKYFVGRNANGKVAISAKKIEGDNIGAQVLGLFTLSTGQDIWQKLS
B8: PRT-345 (protein)
chain: MTITSVWTKGVTPPTPEDFRENNEDVLHAPYLANQGWYDITKAFDGKDNLLCGAATAGNMLHWWFDQNKEEIERYLKKHPEKQKIIFNNQELFDVKAAIDTKDSQTNSKLFDYFRDKAFPNLSARQLGVMPDLVLDMFINGYYLNLGKTQSTDVNRPYQDKDKRGGIFDAVFTRGDQTTLLTARHDLKNKGLNEISDLIKQELTEGKALALSHTYANVSINHVINLWGADFDAEGELEAIYVTDSDANPSIGMKKYFVGRNAHGKVAISAKKIEGDNIGAQVLGLFTLSTGQDIWQKLS
B9: PRT-344 (protein)
chain: MTITSVWTKGVTPPTPEDFRENNEDVLHAPYLANQGWYDITKAFDGKDNLLCGAATAGNMLHWWFDQNKEEIERYLKKHPEKQKIIFGNQELFDVKAAIDTKDSQTNSKLFDYFRDKAFPNLSARQLGVMPDLVLDMFINGYYLNLGKTQSTDVNRPYQDKDKRGGIFDAVFTRGDQTTLLTARHDLKNKGLNEISDLIKQELTEGKALALSHTYANVSINHVINLWGADFDAEGELEAIYVTDSDANPSIGMKKYFVGRNAHGKVAISAKKIEGDNIGAQVLGLFTLSTGQDQWQKLS
B10: PRT-337 (protein)
chain: MTITSVWTKGVTPPTPEDFRKNNEDVLHAPYLANQGWYDITKAFDGKDNLLCGAATAGNMLHWWFDQNKEEIERYLKKHPEKQKIIFNNQELFDVKAAIDTKDSQTNSKLFNYFRDKAFPNLSARQLGVMPDLVLDMFINGYYLNLGKTQSTDVNRPYQDKDKRGGIFDAVFTRGDQTTLLTARHDLKNKGLNEISDLIKQELTEGKALALSHTYANVSINHVINLWGADFDAEGNLEAIYVTDSDANASIGMKKYFVGRNAHGKVAISAKKIEGDNIGAQVLGLFTLSTGQDIWQKLS

Molecular target: pooled human IgG (human IgG1,2,3 and 4)

Protein | Enzyme Activity Endpoint Assay (purified): Fab′2 [ng/µL] | Enzyme Activity Endpoint Assay (purified): Fc [ng/µL] | Enzyme Activity Endpoint Assay (purified): IgG [ng/µL] | Enzyme Activity Endpoint Assay (purified): scIgG [ng/µL] | Enzyme Activity Endpoint Assay (purified): Fab'2 [ng/µL]
B1 | 229 | 302 | 281 | 599 | 
B2 | 101 | 259 | 189 | 767 | 
B3 |  | 340 | 202 | 677 | 260
B4 |  | 361 | 100 | 518 | 351
B5 | 0 | 3 | 0 | 0 | 
B6 | 89 | 241 | 191 | 684 | 
B7 |  | 264 | 370 | 965 | 50
B8 | 61 | 248 | 123 | 772 | 
B9 | 562 | 335 | 0 | 218 | 
B10 | 0 | 74 | 38 | 259 | 
